Molecular target: the molecule itself
Assay: self-association (homodimerization), observed with NMR (FIG. 3A-3C)

B1: HP-7 polypeptide (SEQ ID NO: 7) (peptide)
chain: GEIWKQHEDALQKFEEALNQFEDLKQLGGSGCGSGGEIWKQHEDALQKFEEALNQFEDLKQL
notes: also called free HP-7
binding result: binds

Reference: US20120034671A1 (RESEARCH FOUNDATION OF THE CITY UNIVERSITY OF NEW YORK, published 2012)
